Target: TGFβR2-IL18R redirector receptor
Assay: cell-based or functional assay

TGFβR2-IL18R redirector receptor, sequence (chain, as listed by the source): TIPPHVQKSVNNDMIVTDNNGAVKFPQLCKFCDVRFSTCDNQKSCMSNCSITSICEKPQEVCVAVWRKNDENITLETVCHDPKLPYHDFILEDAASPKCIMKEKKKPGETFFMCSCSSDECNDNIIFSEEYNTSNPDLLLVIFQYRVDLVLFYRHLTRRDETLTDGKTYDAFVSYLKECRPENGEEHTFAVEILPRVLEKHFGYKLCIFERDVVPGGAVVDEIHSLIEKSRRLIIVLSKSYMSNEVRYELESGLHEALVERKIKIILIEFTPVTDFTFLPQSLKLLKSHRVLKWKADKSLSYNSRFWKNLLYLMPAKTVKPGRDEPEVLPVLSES

percent CD69^+CD25^+ effector cells after five rounds of co-culture with TGFβ (flow cytometry): 61.6%
Substance: TGFβ (ligand)
